The supplement of paper PMC11246515
± gives the standard deviation of the averaged measurements.

Assay: total protein half-life in vivo (active degradation + dilution); higher = more stable protein
[1] = E. coli NCM3722 delta-clpP delta-lon delta-hslV, growth: N-lim chemostat, doubling time 6 h
[2] = E. coli NCM3722 delta-clpP, growth: N-lim chemostat, doubling time 6 h
[3] = E. coli NCM3722 delta-hslV, growth: N-lim chemostat, doubling time 6 h
[4] = E. coli NCM3722 delta-lon, growth: N-lim chemostat, doubling time 6 h
[5] = E. coli NCM3722 delta-smpB, growth: N-lim chemostat, doubling time 6 h
[6] = wild type E. coli NCM3722, growth: C-lim chemostat, doubling time 3 h
[7] = wild type E. coli NCM3722, growth: C-lim chemostat, doubling time 6 h
[8] = wild type E. coli NCM3722, growth: C-lim chemostat, doubling time 12 h
[9] = wild type E. coli NCM3722, growth: N-lim chemostat, doubling time 6 h
[10] = wild type E. coli NCM3722, growth: N-lim chemostat, doubling time 12 h
[11] = wild type E. coli NCM3722, growth: P-lim chemostat, doubling time 6 h
[12] = wild type E. coli NCM3722, growth: P-lim chemostat, doubling time 12 h

Sequence	total protein half-life in vivo [1] [h]	total protein half-life in vivo [2] [h]	total protein half-life in vivo [3] [h]	total protein half-life in vivo [4] [h]	total protein half-life in vivo [5] [h]	total protein half-life in vivo [6] [h]	total protein half-life in vivo [7] [h]	total protein half-life in vivo [8] [h]	total protein half-life in vivo [9] [h]	total protein half-life in vivo [10] [h]	total protein half-life in vivo [11] [h]	total protein half-life in vivo [12] [h]
MSQNNPLRALLDKQDILLLDGAMATELEARGCNLADSLWSAKVLVENPELIREVHLDYYRAGAQCAITASYQATPAGFAARGLDEAQSKALIGKSVELARKAREAYLAENPQAGTLLVAGSVGPYGAYLADGSEYRGDYHCSVEAFQAFHRPRVEALLDAGADLLACETLPNFSEIEALAELLTAYPRARAWFSFTLRDSEHLSDGTPLRDVVALLAGYPQVVALGINCIALENTTAALQHLHGLTVLPLVVYPNSGEHYDAVSKTWHHHGEHCAQLADYLPQWQAAGARLIGGCCRTTPADIAALKARS	6.94 ± 1.2	4.714 ± 0.0092	4.45 ± 0.15	4.95 ± 0.14	4.6036 ± 0.0045	2.51 ± 0.23	5.009 ± 0.032	8.67 ± 1.6	5.31 ± 0.38	8.64 ± 0.12	6.15 ± 0.4	13 ± 0.82
MSQPRPLLSPPETEEQLLAQAQQLSGYTLGELAALVGLVTPENLKRDKGWIGVLLEIWLGASAGSKPEQDFAALGVELKTIPVDSLGRPLETTFVCVAPLTGNSGVTWETSHVRHKLKRVLWIPVEGERSIPLAQRRVGSPLLWSPNEEEDRQLREDWEELMDMIVLGQVERITARHGEYLQIRPKAANAKALTEAIGARGERILTLPRGFYLKKNFTSALLARHFLIQ	5.31 ± 1.2	4.23 ± 0.2	3.6 ± 0.27	5.21 ± 0.38	3.89 ± 0.26	2.83 ± 0.25	5.16 ± 0.45	8.72 ± 0.48	4.92		5.79	8.63 ± 0.7
MSQQRPDRIKQMLHYLWQHRHLSTQQAMELFGYAEATVRRDFQYIVNQYPGMIRGHGCLDFDDSTDDKEYVFDVKRTLQSVAKREIAALARTMIKDGDCFFLDSGSTCLELAKCLADARVKVICNDIKIANELGCFPHVESYIIGGLIRPGYFSVGESLALEMINAFSVERAFISCDALSLETGITNATMFEVGVKTRIIQRSREVILMADHSKFDAVEPHAVATLSCIKTIISDSGLPETIAQRYQRAGCQLFLPHSIK	6.15 ± 1.6				0.761	2	2.57 ± 0.049	3.04 ± 0.33				
MSQRITIDPVTRIEGHLRIDCEIENGVVSKAWASGTMWRGMEEIVKNRDPRDAWMIVQRICGVCTTTHALSSVRAAESALNIDVPVNAQYIRNIILAAHTTHDHIVHFYQLSALDWVDITSALQADPTKASEMLKGVSTWHLNSPEEFTKVQNKIKDLVASGQLGIFANGYWGHPAMKLPPEVNLIAVAHYLQALECQRDANRVVALLGGKTPHIQNLAVGGVANPINLDGLGVLNLERLMYIKSFIDKLSDFVEQVYKVDTAVIAAFYPEWLTRGKGAVNYLSVPEFPTDSKNGSFLFPGGYIENADLSSYRPITSHSDEYLIKGIQESAKHSWYKDEAPQAPWEGTTIPAYDGWSDDGKYSWVKSPTFYGKTVEVGPLANMLVKLAAGRESTQNKLNEIVAIYQKLTGNTLEVAQLHSTLGRIIGRTVHCCELQDILQNQYSALITNIGKGDHTTFVKPNIPATGEFKGVGFLEAPRGMLSHWMVIKDGIISNYQAVVPSTWNSGPRNFNDDVGPYEQSLVGTPVADPNKPLEVVRTIHSFDPCMACAVHVVDADGNEVVSVKVL [P0ACE0]	5.01 ± 1.1	4.55 ± 1.2	3.87 ± 1.6		2.6 ± 0.2	2.07 ± 0.18	4.37 ± 1	7.59 ± 2.3	3.47 ± 0.036	4.62	4.92 ± 2.1	10.7 ± 4.1
MSQSEFDSALPNGIGLAPYLRMKQEGMTENESRIVEWLLKPGNLSCAPAIKDVAEALAVSEAMIVKVSKLLGFSGFRNLRSALEDYFSQSEQVLPSELAFDEAPQDVVNKVFNITLRTIMEGQSIVNVDEIHRAARFFYQARQRDLYGAGGSNAICADVQHKFLRIGVRCQAYPDAHIMMMSASLLQEGDVVLVVTHSGRTSDVKAAVELAKKNGAKIICITHSYHSPIAKLADYIICSPAPETPLLGRNASARILQLTLLDAFFVSVAQLNIEQANINMQKTGAIVDFFSPGALK [P0ACS7]	6.33 ± 0.37	6 ± 0.24	5.5 ± 0.74	5.71	5.56 ± 0.55	3.07 ± 0.4	6.86 ± 0.23	14.6 ± 1.1	5.77 ± 0.44	11.3 ± 1.8	6.09 ± 0.2	12.5 ± 1.1
MSQVQFSHNPLFCIDIIKTYKPDFTPRVAFILGSGLGALADQIENAVAISYEKLPGFPVSTVHGHAGELVLGHLQGVPVVCMKGRGHFYEGRGMTIMTDAIRTFKLLGCELLFCTNAAGSLRPEVGAGSLVALKDHINTMPGTPMVGLNDDRFGERFFSLANAYDAEYRALLQKVAKEEGFPLTEGVFVSYPGPNFETAAEIRMMQIIGGDVVGMSVVPEVISARHCDLKVVAVSAITNMAEGLSDVKLSHAQTLAAAELSKQNFINLICGFLRKIA	5.56 ± 0.68				1.93 ± 0.26	2		6.43			2.34	5.82
MSQVSLSQQLKEGNLFAEQCPSREVLKHVTSRWGVLILVALREGTHRFSDLRRKIGGVSEKMLAQSLQALEQDGFLNRIAYPVVPPHVEYSLTPLGEQVSEKVAALADWIELNLPEVLAVRDERAA [P0ACN2]	4.79			2.18	2.12	2.01	3.02 ± 0.26	3.86				
MSQVTENKVISAPVPMTPLQEFWHYFKRNKGAVVGLVYVVIVLFIAIFANWIAPYNPAEQFRDALLAPPAWQEGGSMAHLLGTDDVGRDVLSRLMYGARLSLLVGCLVVVLSLIMGVILGLIAGYFGGLVDNIIMRVVDIMLALPSLLLALVLVAIFGPSIGNAALALTFVALPHYVRLTRAAVLVEVNRDYVTASRVAGAGAMRQMFINIFPNCLAPLIVQASLGFSNAILDMAALGFLGMGAQPPTPEWGTMLSDVLQFAQSAWWVVTFPGLAILLTVLAFNLMGDGLRDALDPKLKQ [P0AEG1]	6.11	5.53 ± 0.37	6.45	6.14 ± 1	5.93 ± 0.46	3.47	> 8	12.6 ± 2.1	6.39 ± 0.51	10.9 ± 2	6.16 ± 0.14	10.8 ± 2.3
